Reference: the RNAGym collection of RNA variant scans (doi:10.7554/elife.80360)

B1: Hairpin Ribozyme (parent)
chain: GUCCUCUUUCACGUGCGCGUGAAAGAGAGAAGUGAACCAGAGAAACACACGUUGUGGUAUAUUACCUGGUA

Variants of: B1
Experiment: self-cleavage, relative activity (ratio to wild type); higher = more cleavage; co-transcriptional

| Variant | self-cleavage |
| --- | --- |
| A41G C48G | 0.121 |
| A41U C66U | 0.46 |
| A41U G54U | 1.19 |
| A41G A71C | 1.34 |
| A41G A71G | 1.08 |
| A41G A71U | 0.733 |
| G42A U62C | 0.133 |
| G42A U62A | 0.151 |
| G42A A61U | 0.125 |
| G42A A61C | 0.0818 |
| A41U A45G | 0.218 |
| G42C C50A | 0.212 |
| G42C A43G | 0.177 |
| G40U G69U | 0.0875 |
| A41U U53G | 1.16 |
| G40U U60A | 0.191 |
| A41C A43G | 0.191 |
| G40U U63A | 0.138 |
| A41C A59C | 0.17 |
| A41G C46A | 0.151 |
| A41U G51U | 1.5 |

| Variant | self-cleavage |
| --- | --- |
| G40U C48G | 0.189 |
| G40U C48U | 0.181 |
| G40U U53A | 0.121 |
| A41C U53G | 0.758 |
| G42A G68U | 0.144 |
| G42A U58C | 0.21 |
| G42C G51U | 0.448 |
| G40U G42A | 0.202 |
| G42C G54C | 0.113 |
| A41G C50A | 0.255 |
| G42A A47G | 0.162 |
| A41G G69U | 0.42 |
| A41C U67C | 0.249 |
| A41G G57A | 0.184 |
| A41G G57U | 0.184 |
| G42C C48U | 0.143 |
| G42C C48G | 0.113 |
| A41C G56C | 0.237 |
| G40U A64C | 0.175 |
| G40U A64U | 0.1 |
| G42A U70C | 0.128 |

| Variant | self-cleavage |
| --- | --- |
| A41C U52G | 0.654 |
| G42C U52C | 0.427 |
| A41C A49U | 0.0586 |
| A41C A49G | 0.561 |
| A41U A61C | 0.39 |
| G40U U62C | 0.212 |
| G40U U62A | 0.141 |
| G42A U52A | 0.221 |
| A41C A61G | 0.304 |
| A41G G54C | 0.672 |
| A41G G54A | 0.481 |
| G40U U67G | 0.151 |
| G40U U67C | 0.0949 |
| A41G U60G | 0.367 |
| G42A C48G | 0.127 |
| G42C A47U | 0.147 |
| G42A A49G | 0.118 |
| G40U A47C | 0.118 |
| G40U A47G | 0.18 |
| G42A C66U | 0.147 |
| G42C G69U | 0.157 |

| Variant | self-cleavage |
| --- | --- |
| G42C G69C | 0.145 |
| G42C G69A | 0.0872 |
| A41C G57C | 0.226 |
| A41C G54A | 0.829 |
| A41C A47U | 0.229 |
| A41G A44U | 0.185 |
| A41G G68U | 0.364 |
| G42A A64U | 0.107 |
| G42C C66A | 0.103 |
| G42C C66G | 0.137 |
| G42C C66U | 0.13 |
| G42C U60C | 0.419 |
| G40U C66U | 0.223 |
| G42C A59C | 0.188 |
| G42C A59U | 0.156 |
| G42A U63G | 0.193 |
| A41G G56A | 0.255 |
| G42A C46U | 0.0972 |
| A41C U58G | 1.18 |
| A41C U58C | 1.2 |
| G42A A45U | 0.109 |
